The source of these data is US20200323888A1, “INHIBITORS” (VESTLANDETS INNOVASJONSSELSKAP AS, priority 2017, published 2020).

Primed or numbered codes have the meaning given here. Ends that are not written are not given here. Ac′ = acetamide linker; CoA = coenzyme A

The target in one test is T1, NatA (Homo sapiens, UniProt P41227).
T1 construct: endogenous in cells
T1 sequence (P41227 1-235): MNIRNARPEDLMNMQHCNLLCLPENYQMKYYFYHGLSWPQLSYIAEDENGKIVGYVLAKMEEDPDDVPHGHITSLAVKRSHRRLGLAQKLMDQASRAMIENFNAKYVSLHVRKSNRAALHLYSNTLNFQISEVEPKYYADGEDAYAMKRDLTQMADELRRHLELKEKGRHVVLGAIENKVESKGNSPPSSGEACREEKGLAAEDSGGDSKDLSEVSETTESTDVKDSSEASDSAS
T1 sequence (Q9BXJ9 1-866 partner): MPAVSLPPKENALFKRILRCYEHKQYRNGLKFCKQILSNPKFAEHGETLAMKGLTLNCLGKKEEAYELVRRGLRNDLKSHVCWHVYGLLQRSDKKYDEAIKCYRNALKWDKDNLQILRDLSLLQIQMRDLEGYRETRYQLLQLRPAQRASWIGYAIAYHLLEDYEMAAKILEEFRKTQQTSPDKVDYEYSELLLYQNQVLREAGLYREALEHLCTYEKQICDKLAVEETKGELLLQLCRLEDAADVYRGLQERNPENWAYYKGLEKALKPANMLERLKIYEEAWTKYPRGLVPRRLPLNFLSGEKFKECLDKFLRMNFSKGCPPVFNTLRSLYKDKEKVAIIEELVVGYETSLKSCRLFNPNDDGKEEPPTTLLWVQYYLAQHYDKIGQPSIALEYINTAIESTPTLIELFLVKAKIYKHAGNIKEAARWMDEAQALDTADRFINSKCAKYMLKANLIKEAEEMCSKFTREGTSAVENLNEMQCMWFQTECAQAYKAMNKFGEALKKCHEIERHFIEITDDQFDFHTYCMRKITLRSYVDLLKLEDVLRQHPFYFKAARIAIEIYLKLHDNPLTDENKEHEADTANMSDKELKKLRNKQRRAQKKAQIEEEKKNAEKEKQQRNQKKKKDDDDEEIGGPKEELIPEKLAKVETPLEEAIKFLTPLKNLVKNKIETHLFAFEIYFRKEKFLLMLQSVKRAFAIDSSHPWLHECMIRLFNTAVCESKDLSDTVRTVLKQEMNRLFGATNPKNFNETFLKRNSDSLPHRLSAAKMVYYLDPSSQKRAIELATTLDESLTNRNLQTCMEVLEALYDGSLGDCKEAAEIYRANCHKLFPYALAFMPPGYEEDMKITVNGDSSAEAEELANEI
Particulars: NatA complex; Foyn et al. 2013; cited from earlier work.

For test [1], the target named is T2, Naa80 (Homo sapiens, UniProt Q93015).
T2 construct: The PCR product containing the CDS was inserted into the TOPO TA vector; made in house; host or cells: E. coli BL21 Star (DE3)
T2 sequence (Q93015 1-308 isoform Q93015-2): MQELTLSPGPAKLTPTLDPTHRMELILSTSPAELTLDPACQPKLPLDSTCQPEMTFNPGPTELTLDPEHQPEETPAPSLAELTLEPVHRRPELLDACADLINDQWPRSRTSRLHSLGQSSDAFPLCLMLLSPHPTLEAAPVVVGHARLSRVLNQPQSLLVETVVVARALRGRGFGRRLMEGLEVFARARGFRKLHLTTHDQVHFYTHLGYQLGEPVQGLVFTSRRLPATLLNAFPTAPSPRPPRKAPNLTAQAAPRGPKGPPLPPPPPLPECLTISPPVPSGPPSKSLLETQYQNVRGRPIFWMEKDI
Description: Nt-acetylation inhibitor assay for Naa80. Particulars: Naa80. The test is classed as biochemical. As to the method:
FIG. 10: (A) IC50 values for inhibitors measured in an Nt-acetylation inhibitor assay for Naa80. (B) Ki-values for CoA-Ac-DDDI-NH2 (SEQ ID NO: 6) for different human NATs measured in an Nt-acetylation inhibitor assay. All reactions were performed at least three times and in triplicate; errors bars represent standard deviation of each measurement.
The IC50 values for these compounds were tested as described in Foyn H, et al. (2013) “Design, Synthesis, and Kinetic Characterization of Protein N-Terminal Acetyltransferase Inhibitors”. ACS Chem Biol 8:1121-1127; and Foyn H, et al. (2017) “DTNB-Based quantification of in vitro enzymatic N-terminal acetyltransferase activity”, Methods Mol. Biol. 1574:9-15. Briefly, a colorimetric acetylation assay, 5,5′-dithiobis-(2-nitrobenzoic acid) (DTNB) assay was used to measure the catalytic activity of NATs after incubation with NAT inhibitors. In the DTNB assay, thiols present in the enzymatic product, CoA, cleaves DTNB and produces 2-nitro-5-thiobenzoate (NTB-), which absorbs light with a wavelength of 412 nm. NTB- forms in a 1:1 molar ratio to the thiol groups present in the sample. Therefore, NTB- was quantified by measuring the absorbance at 412 nm and indirectly measures peptide Nt-acetylation. […] After 30 min-60 min incubation at 37° C., the enzyme activity was quenched with quenching buffer (3.2 M guanidinium-HCl, 100 mM sodium phosphate dibasic pH 6.8). Triplicates were run for all positive samples, while negative controls were duplicated. As a negative control, reactions without enzyme were incubated at 37° C. before the reaction was quenched and added enzyme. In order to measure CoA production, 2 mM DTNB (dissolved in 100 mM sodium phosphate dibasic pH 6.8 and 10 mM EDTA) was added to the quenched reaction and the absorbance at 412 nm was measured with a spectrophotometer (Epoc). Background absorbance (determined in negative controls) was subtracted from the absorbance determined in each individual reaction. Thiophenolate production was quantified assuming ε=13.7×103 M−1 cm−1. For NatA and NatB enzyme complex inhibition, immunoprecipitation was performed using Naa15 ab (custom made, Arnesen T, Anderson D, Baldersheim C, Lanotte M, Varhaug J E, Lillehaug J R. (2005) Identification and characterization of the human ARD1-NATH protein acetyltransferase complex. Biochemical J 386(Pt 3):433-43.) or Naa20 ab (Nat5, abnova) respectively and protein A/G magnetic agarose beads (Millipore). A similar Nt-acetylation reaction was performed as previously described and the enzymatic activity was quenched with a final concentration of 1% TFA and analyzed by HPLC (Evjenth R, Van Damme P, Gevaert K, Arnesen T (2013) HPLC-based Quantification of in vitro N-terminal Acetylation. Methods Mol Biol 981:95-102.).
We then pursued Naa80 bisubstrate analogue inhibitors based on the results of the substrate screening and the sequences of the cellular substrates processed β- and γ-actin. We synthesized bisubstrate conjugates of Coenzyme A coupled to the tetrapeptides MDEL-NH2 (SEQ ID NO: 8), DDDI-NH2 (SEQ ID NO: 6), EEEI-NH2 (SEQ
ID NO: 7), and MLGT-NH2 (SEQ ID NO: 52) via an acetamide (Ac) linker.
The following additional Naa80 bisubstrate analogue inhibitors were produced and tested as described above: […]

The next test concerns the target T3, Naa10 (Homo sapiens, UniProt P41227).
T3 sequence (P41227 1-235): T1 sequence (P41227 1-235)
The following applies: hNaa10, catalytic subunit of NatA; Foyn et al. 2013; cited from earlier work.

A further test deals with T4, Naa50 (Homo sapiens, UniProt Q9GZZ1).
T4 sequence (Q9GZZ1 1-169): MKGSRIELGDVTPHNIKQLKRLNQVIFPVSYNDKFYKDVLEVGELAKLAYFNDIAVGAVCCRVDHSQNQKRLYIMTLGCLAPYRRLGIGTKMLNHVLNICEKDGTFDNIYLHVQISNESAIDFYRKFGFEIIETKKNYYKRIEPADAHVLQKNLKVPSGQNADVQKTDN
The following applies: NatE/hNaa50; Foyn et al. 2013; cited from earlier work.

Test [2] deals with T2, Naa80. Kind of test: Naa80 substrate screening assay (peptide acetylation by purified Naa80). It counts as biochemical. Particulars: Naa80 mediated acetylation of 24-mer peptide substrates. The text has this:
In order to investigate the in vitro activity of Naa80 further, an enzyme activity screening assay on purified Naa80 was undertaken using a broad substrate library (including amino acids, nucleosides, coenzymes, amines, saccharides, vitamins, antioxidants and peptides) modified from Kuhn et al. (Kuhn et al. (2013) “Broad-substrate screen as a tool to identify substrates for bacterial Gcn5-related N-acetyltransferases with unknown substrate specificity”. Protein Science 22(2):222-230). Among all of the potential substrates tested, only the peptides with N-terminal sequence of MDEL24 (SEQ ID NO: 45), DDDI24 (SEQ ID NO: 41) and EEEI24 (SEQ ID NO: 40) were acetylated, as shown in the following table:
The 24-mer substrate peptides differed in their 7 N-terminal amino acids while the 17 C-terminal residues (RWGRPVGRRRRPVRVYP, SEQ ID NO: 39) were kept constant: EEEI24 (EEEIAAL, SEQ ID NO: 40), DDDI24 (DDDIAAL, SEQ ID NO: 41), MDDD24 (MDDDIAA, SEQ ID NO: 42), SESS24 (SESSSKS, SEQ ID NO: 43), AVFA24 (AVFADLD, SEQ ID NO: 44), MDEL24 (MDELFPL, SEQ ID NO: 45), MELL24 (MELLSPP, SEQ ID NO: 46), MLGT24 (MLGTGPA, SEQ ID NO: 47), MTNK24 (MTNKSSL, SEQ ID NO: 48), MLGP24 (MLGPEGG, SEQ ID NO: 49), MAPL24 (MAPLDLD, SEQ ID NO: 50), MKKS24 (MKKSYSG, SEQ ID NO: 51).
Both MDEL (p65, SEQ ID NO: 8) and MDDD24 (unprocessed β-actin, SEQ ID NO: 42) represent cellular NatB substrates.

The target of test [3] is T2, Naa80. Described as above. The test is classed as biochemical. The following applies: linear range of enzyme concentration.
Test [4] addresses T5, MBP-HishNAA80 fusion protein (MBP-Naa80) (human, UniProt Q93015-2 1-308).
T5 sequence (looked up): T2 sequence (Q93015 1-308 isoform Q93015-2)
Description: cell-based or functional assay.

The target in test [5] is T5, MBP-HishNAA80 fusion protein (MBP-Naa80). Kind of test: Ki from Nt-acetylation inhibitor assay, panel of human NATs.
The next test addresses T6, Naa10 (monomeric) (human, UniProt P41227 1-235, limits assumed).
T6 construct: also called hNaa10; Ard1
T6 sequence (looked up): T1 sequence (P41227 1-235)
The test is described as above.

Test [6] concerns the target T5, MBP-HishNAA80 fusion protein (MBP-Naa80). Description: cell-based or functional assay. This is another data set of the same source.

In general, IC50 refers to the point on the concentration scale where inhibition reaches its midpoint. Broadly, the Ki is a measure of affinity in units of concentration, obtained from inhibition or displacement. A lower Ki goes with a stronger hold on the target.

Regarding `CC(C)(COP(=O)(O)OP(=O)(O)OCC1OC(n2cnc3c(N)ncnc32)C(O)C1OP(=O)(O)O)C(O)C(=O)NCCC(=O)NCCSCC(=O)N[C@@H](CO)C(=O)N[C@@H](CCC(=O)O)C(=O)N[C@@H](CO)C(=O)N[C@@H](CO)C(N)=O` (some centres unmarked) [CoA-Ac-SESS], at NatA, the IC50 is 15100 nM.
With `CC[C@H](C)[C@H](NC(=O)[C@H](CCC(=O)O)NC(=O)[C@H](CCC(=O)O)NC(=O)[C@H](CCC(=O)O)NC(=O)CSCCNC(=O)CCNC(=O)C(O)C(C)(C)COP(=O)(O)OP(=O)(O)OCC1OC(n2cnc3c(N)ncnc32)C(O)C1OP(=O)(O)O)C(N)=O` (some centres unmarked) [CoA-Ac-EEEI-NH2], the results for the IC50 on Naa80 [1] and on Naa10 were 1160 nM and 10100 nM, respectively.
As for “CoA-Ac-MLG7: Previously disclosed bisubstrate analogue inhibitor of NatE/hNaa50 (SEQ ID NO: 49), Foyn 2013 ({CoA-Ac′}-MLGPEGG)”, the half-inhibitory concentration (IC50) in the test with Naa50 was 1290 nM.
Regarding “MDEL24: 24-mer substrate peptide: N-terminal MDELFPL (SEQ ID NO: 45) plus constant RWGRPVGRRRRPVRVYP (MDELFPLRWGRPVGRRRRPVRVYP)”, in the test with Naa80 [2], the Product formation is on record as 119 (±5.61) μM. In addition, the “higher product formation compared to second best substrate MDDD24” value with Naa80 [3] was 5 fold.
With {CoA-Ac}-DDDI-NH2 [CoA-Ac-DDDI-NH2], in test [4], the “fold more potent than CoA-Ac-EEEI-NH2 (IC50)” value is 3 fold and the “fold more potent than CoA-Ac-MDEL-NH2 (IC50)” value was determined as 3.3 fold. In test [5], the Ki turned out to be 43 nM. Besides, in the test with Naa10 (monomeric), the “fold reduced potency for Naa10 compared to Naa80” value stood at 88 fold. In addition, in test [6], the “IC50 (µM), Nt-acetylation inhibition” value worked out at 0.38 µM.
